Test results taken from article PMC10987677 (The EMBO Journal, 2024).

Biological target: T1, IFT54^CH (IFT54 residues 1-137) (human, UniProt Q8TDR0 1-137)
T1 construct: IFT54 (IFT-B subunit), human, CH domain, residues 1-137; also called IFT54 CH domain; source: baculovirus system, purified (IgG Sepharose, released by TEV protease); not shown: ZZ, N-terminal, cleaved
T1 sequence (looked up): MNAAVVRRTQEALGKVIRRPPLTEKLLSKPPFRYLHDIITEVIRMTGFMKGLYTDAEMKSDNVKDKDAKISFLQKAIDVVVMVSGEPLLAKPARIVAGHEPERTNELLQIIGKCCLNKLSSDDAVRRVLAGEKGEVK
Experiment: pull-down; ZZ-SNAP-GST-WDR60^355-449 immobilized on IgG Sepharose 6; purified IFT54^CH at 4.6 µM flowed over in wash buffer (30 mM HEPES pH 7.4, 150 mM KCl, 1 mM EGTA, 1 mM DTT, 10% glycerol); TEV elution, SDS-PAGE, Sypro Red
Conditions: both partners purified

B1: ZZ-SNAP-GST-WDR60^355-449 (domain or fragment, human, UniProt Q8WVS4 355-449, looked up)
chain: IEKEETDLENARADAYTASCEDDFEDYEDDFEVCDGDDDESSNEPESREKLEELPLAQKKEIQEIQRAINAENERIGELSLKLFQKRGRTEFEKE
notes: WDR60/DYNC2I1, human, residues 355-449 of the N-terminal extension; released by TEV protease afterwards for SDS-PAGE; source: baculovirus system, immobilized on IgG Sepharose 6 resin and washed; not shown: ZZ, N-terminal, kept; SNAP, N-terminal, kept; GST, N-terminal, kept
binding result: binds
